The values that follow come from patent US8962819B2, “Anti-C5 alpha antibodies” (Adienne S.A., priority 2002, dated 2015).

The target in one test is T1, C5 beta chain (Homo sapiens, UniProt P01031).
T1 construct: Lane 1: 100 ng of C5 alpha chain; lane 2: 100 ng of beta chain; purchased Quidel
T1 sequence (P01031 19-673 limits assumed): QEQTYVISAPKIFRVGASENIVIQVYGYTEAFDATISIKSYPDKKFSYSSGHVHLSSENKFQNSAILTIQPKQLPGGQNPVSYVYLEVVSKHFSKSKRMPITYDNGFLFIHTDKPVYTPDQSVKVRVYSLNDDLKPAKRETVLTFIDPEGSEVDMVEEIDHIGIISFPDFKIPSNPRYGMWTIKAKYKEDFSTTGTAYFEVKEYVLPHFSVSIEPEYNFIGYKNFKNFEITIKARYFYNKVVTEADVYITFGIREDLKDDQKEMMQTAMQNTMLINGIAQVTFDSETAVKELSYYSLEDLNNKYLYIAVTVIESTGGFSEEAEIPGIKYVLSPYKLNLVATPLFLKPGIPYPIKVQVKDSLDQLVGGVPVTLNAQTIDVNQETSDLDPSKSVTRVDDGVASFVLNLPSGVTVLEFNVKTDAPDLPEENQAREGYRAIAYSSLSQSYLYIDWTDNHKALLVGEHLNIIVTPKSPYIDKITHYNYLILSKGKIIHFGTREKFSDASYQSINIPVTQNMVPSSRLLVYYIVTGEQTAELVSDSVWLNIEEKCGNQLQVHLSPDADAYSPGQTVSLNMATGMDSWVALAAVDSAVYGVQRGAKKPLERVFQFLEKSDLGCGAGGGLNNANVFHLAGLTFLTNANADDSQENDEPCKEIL
As to the kind of experiment: Immunoblotting on separated C5 chains. It is filed as binding. The note with it: 100 ng chain, FIG. 2 lane 2. As to the method:
(§1) The alpha and beta chains of C5 were electrophoretically separated by means of SDS-PAGE in 10% polyacrylamide and then transferred onto nitrocellulose. […] Lane 1: 100 ng of C5 alpha chain; lane 2: 100 ng of beta chain; lane 3: mixture of the two chains. […] It can be seen that scFv TSA-12/22 recognises the alpha chain of C5 in lane 1, but not the beta chain in lane 2.
(§2) Purified proteins. Purified components C4 to C9 were purchased from Quidel (Saint Diego, Calif.) and the human recombinant C5a component was purchased from SIGMA-ALDRICH® S.r.1. (Milan, Italy). C5 alpha and beta subunits were obtained by incubating 50 μg of C5 diluted in 0.55 M TRIS-HCl pH 8.1 containing DTT (0.02 M) for 30 min at room temperature (RT), followed by treatment with iodoacetamide (0.12 M) for 1 hour at RT. Alpha and beta chains were purified by gel filtration on Superose 12 (Pharmacia Biotech, Milan, Italy) in Fast Protein Liquid Chromatography (FPLC) and purity was assessed by SDS-PAGE in non-reducing conditions.
(§3) It was first characterised, by means of the Western-blotting technique, whether the TS-A12/22 antibody recognises the alpha or beta of subunit of the C5 complement component prepared as described in Materials. Briefly the two subunits were electrophoresed in separate wells and transferred on nitrocellulose membranes. A solution containing Tris 50 mM pH 7.6, 0.5 M NaCl and 4% skimmed powder milk was used to block non-specific sites for 1 hour at 37° C. […] The enzymatic reaction was developed with blue tetrazolium and 5-bromo-4-chlorine-3-indolil phosphate (SIGMA-ALDRICH®, 0.30 mg/ml) diluted in 0.1 M Tris-HCl pH 9.5 containing 0.1 M NaCl and 5 mM MgCl2. Rainbow RPN 756 ([…]™ Italy (a trademark of General Electric Healthcare Limited)) were used as molecular weight markers.
Background: A western blot detects proteins with antibodies after separation by electrophoresis.

Another test concerns the target T2, C5 alpha chain (Homo sapiens, UniProt P01031).
T2 construct: Lane 1: 100 ng of C5 alpha chain; lane 2: 100 ng of beta chain; purchased Quidel
The test can be described thus: Immunoblotting on separated C5 chains. It counts as binding. Conditions: 100 ng chain, FIG. 2 lane 1. As to the method: as §1, §2, §3

In another test the target is T3, C5 (Homo sapiens, UniProt P01031).
T3 construct: C5 alpha and beta subunits were obtained by incubating 50 μg of C5; purchased Quidel
The test can be described thus: Hemolytic assay, classical pathway (EAC1-3b sheep erythrocytes). It is filed as biochemical. The note with it: 600 ng scFv, increasing amounts of C5, FIG. 4A. As to the method:
Values from spectrophotometric reading performed at 412 nm to measure inhibition of lysis of sheep erythrocytes coated with EAC1-3b, through the classical complement activation pathway (A Panel); or of rabbit erythrocytes in order to measure the alternative pathway of complement activation (B Panel). Increasing amounts of C5 were mixed with 600 ng of the scFv antibody of the invention with an unrelated scFv, or with GVBS in which the scFv of the invention were solubilised, as described in example 9. After incubation with serum lacking in C5, obtained from a patient with selective deficiency of this complement component, the percentage of hemolysis was measured compared to the 100% value obtained by lysing erythrocytes in an equal volume of distilled H2O and a blank obtained by resuspending eythrocytes in GBVS. Having assessed the characteristics of the inhibition of the classical activation pathway of factor C5 by the TS-A12/22 antibody, it was then verified whether there was inhibition also of the alternative pathway of C5 activation, and at which level. […] After incubation for 30 minutes at 37° C., the percentage of erythrocyte lysis was measured by comparison to a 100% value obtained by lysing erythrocytes with an equal volume of distilled of H2O and to a blank consisting of erythrocytes re-suspended in GBVS. […]

T2 sequence (P01031 678-1676 limits assumed): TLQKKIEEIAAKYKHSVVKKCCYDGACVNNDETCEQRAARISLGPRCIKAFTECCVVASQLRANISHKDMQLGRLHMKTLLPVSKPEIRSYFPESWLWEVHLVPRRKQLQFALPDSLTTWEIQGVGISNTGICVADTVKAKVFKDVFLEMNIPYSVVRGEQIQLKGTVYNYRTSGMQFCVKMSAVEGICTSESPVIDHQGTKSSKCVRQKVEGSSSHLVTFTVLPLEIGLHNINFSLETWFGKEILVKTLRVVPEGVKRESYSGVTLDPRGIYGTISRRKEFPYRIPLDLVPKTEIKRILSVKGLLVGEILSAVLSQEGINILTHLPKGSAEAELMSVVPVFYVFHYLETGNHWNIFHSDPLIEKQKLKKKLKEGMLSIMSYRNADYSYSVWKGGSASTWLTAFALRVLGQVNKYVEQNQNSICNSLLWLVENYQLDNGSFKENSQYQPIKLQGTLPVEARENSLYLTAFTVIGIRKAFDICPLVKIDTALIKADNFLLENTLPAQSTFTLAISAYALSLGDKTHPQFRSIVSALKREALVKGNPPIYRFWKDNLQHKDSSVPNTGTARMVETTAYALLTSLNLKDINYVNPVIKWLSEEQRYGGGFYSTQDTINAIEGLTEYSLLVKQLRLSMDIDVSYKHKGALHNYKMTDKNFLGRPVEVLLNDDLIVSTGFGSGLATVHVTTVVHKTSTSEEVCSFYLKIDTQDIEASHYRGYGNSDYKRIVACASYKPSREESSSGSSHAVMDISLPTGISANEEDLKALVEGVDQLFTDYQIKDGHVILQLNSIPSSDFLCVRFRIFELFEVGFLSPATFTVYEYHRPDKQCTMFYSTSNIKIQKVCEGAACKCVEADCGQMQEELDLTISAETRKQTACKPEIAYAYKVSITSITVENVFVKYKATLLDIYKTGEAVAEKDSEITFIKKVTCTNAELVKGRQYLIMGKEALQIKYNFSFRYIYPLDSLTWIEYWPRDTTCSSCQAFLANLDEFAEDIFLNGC
T3 sequence (P01031 678-1676 limits assumed, one chain of several): as the sequence (P01031 678-1676 limits assumed) above

B1: TS-A12/22: anti-C5 scFv obtained from TS-A12 by VL chain shuffling; VH3/V-48 and Vλ3/V2-14; amino acid sequence SEQ ID NO:6 (protein, listed as Homo sapiens)
scFv: DIRMTQSPDSLAVSLGERATINCKSSQSVLYSSNNKNYLAWYQQKPGQPPKLLIYWASTRESGVPDRFSGSGSGTDFTLTISSLQAEDVAVYYCQQYYSTPQLTFGGRTKVDIKSGGSTITSYNVYYTKLSSSGTQVQLQQSEGGVVQPGRSLRLSCAASGFTFSSYGMNWVRQAPGKGLEWVSYISSSSSTIYYADSVKGRFTISRDNSKNTLYLQMNSLRAEDTAVYYCARGPGMDVWGQGTTVTVSS
For B1, the entries for the “recognition of C5 beta sub-unit” value in the test with C5 beta chain and with C5 beta chain (listed as TSA-12/22) were “does not recognise” and “not”, respectively. Besides, in the test with C5 alpha chain, the “recognition of C5 alpha sub-unit” value is “recognises”. In the test with C5, the “inhibition of erythrocyte lysis through the classical pathway” value was “inhibits”.
